Results published in PMC5034325.
Each block holds one substance with its values, some of them ahead of it.

Target: human taste receptor T1R2-T1R3 (human) (UniProt Q8TE23)
Sequence of UniProt Q8TE23 (Q8TE23 20-839, chain 1 of 2): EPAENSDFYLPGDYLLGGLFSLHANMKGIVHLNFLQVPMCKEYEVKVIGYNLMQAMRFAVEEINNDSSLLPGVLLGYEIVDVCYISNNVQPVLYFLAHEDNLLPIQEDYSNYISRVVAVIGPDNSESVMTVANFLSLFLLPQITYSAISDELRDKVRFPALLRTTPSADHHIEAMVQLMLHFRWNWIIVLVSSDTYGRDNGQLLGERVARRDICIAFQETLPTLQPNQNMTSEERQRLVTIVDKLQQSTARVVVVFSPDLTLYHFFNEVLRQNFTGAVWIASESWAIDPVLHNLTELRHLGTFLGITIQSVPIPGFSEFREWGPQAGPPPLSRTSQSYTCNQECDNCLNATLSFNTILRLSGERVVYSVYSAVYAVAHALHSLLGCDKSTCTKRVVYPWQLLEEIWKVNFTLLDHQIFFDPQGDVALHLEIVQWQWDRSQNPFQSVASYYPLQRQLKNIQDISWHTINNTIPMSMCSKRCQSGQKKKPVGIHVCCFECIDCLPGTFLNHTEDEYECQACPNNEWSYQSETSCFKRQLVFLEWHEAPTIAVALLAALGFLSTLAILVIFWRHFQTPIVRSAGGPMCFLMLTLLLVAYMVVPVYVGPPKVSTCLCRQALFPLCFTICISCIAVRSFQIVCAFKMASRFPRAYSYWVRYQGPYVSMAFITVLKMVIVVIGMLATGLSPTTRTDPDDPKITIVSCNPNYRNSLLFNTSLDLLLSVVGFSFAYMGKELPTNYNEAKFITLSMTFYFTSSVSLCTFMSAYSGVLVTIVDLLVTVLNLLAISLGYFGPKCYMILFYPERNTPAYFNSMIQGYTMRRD
Sequence of UniProt Q8TE23 (Q7RTX0 21-852, chain 2 of 2, further chain): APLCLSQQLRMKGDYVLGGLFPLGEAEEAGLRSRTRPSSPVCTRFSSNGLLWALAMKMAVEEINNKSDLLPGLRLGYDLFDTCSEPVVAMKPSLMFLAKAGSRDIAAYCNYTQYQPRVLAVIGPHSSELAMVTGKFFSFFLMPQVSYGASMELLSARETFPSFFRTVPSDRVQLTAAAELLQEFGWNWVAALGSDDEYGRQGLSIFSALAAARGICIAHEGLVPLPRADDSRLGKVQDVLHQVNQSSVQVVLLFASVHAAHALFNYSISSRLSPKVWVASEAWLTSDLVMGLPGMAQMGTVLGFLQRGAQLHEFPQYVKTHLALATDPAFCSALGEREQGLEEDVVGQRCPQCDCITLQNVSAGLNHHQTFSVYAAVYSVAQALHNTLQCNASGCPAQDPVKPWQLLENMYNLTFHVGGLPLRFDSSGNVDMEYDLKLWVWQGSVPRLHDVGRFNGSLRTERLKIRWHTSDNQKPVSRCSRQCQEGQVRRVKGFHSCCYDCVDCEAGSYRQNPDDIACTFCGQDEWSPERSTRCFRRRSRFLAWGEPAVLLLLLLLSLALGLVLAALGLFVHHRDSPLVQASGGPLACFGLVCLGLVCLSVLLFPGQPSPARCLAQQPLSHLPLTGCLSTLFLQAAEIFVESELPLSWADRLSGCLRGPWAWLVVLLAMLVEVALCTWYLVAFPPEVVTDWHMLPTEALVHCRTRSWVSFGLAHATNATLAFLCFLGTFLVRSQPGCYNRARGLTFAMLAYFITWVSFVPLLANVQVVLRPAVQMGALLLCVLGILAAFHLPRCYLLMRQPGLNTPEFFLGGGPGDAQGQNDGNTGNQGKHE

sweetness threshold, triangle test by a panel of tasters, 5 to 500 nM (also printed as 2.50 mg/L): 223 nM
Substance: C41S, Y65R, S67K, D68N-MNEI (Mut1) (ligand)

sweetness threshold, triangle test by a panel of tasters, 5 to 500 nM (also printed as 0.28 mg/L): 25 nM
Substance: E23Q, Q28K, C41S, Y65R-MNEI (Mut3) (ligand)

sweetness threshold, triangle test by a panel of tasters, 5 to 500 nM (also printed as 0.40 mg/L): 36 nM
Substance: Q28K, C41S, Y65R-MNEI (Mut2) (ligand)

sweetness threshold, triangle test by a panel of tasters, 5 to 500 nM (also printed as 0.62 mg/L): 55 nM
Substance: Y65R-MNEI (ligand)
